Measured values taken from patent US20150276760A1 (INSERM INSTITUT NATIONAL DE LA SANTE ET DE LA RECHERCHE …, published 2015).

Key:
Assay in all cases: Flag/HA immunopurification of MAML1-F/H from SupT1 nuclear extracts, DMSO or GSI (500 nM, 8 hours), western blot (FIG. 2D)
BRG1 = target: T1, BRG1 (human, UniProt P51532 1-1647)
T1 construct: also called endogenous BRG1; PBAF subunit BRG1

AF4p12 = target: T2, AF4p12 (human, UniProt O94915 2-3013)
T2 construct: also called FRYL

PB1 = target: T3, PB1 (human, UniProt Q86U86 1-1689, limits assumed)
T3 construct: also called PBAF subunit PB1

PHF8 = target: T4, PHF8 (human, UniProt Q9UPP1 1-1060, limits assumed)
T4 construct: also called endogenous PHF8; histone demethylase PHF8

LSD1 = LSD1 (human, UniProt O60341 1-852)

Measured: binding result

T1 sequence (P51532 whole entry): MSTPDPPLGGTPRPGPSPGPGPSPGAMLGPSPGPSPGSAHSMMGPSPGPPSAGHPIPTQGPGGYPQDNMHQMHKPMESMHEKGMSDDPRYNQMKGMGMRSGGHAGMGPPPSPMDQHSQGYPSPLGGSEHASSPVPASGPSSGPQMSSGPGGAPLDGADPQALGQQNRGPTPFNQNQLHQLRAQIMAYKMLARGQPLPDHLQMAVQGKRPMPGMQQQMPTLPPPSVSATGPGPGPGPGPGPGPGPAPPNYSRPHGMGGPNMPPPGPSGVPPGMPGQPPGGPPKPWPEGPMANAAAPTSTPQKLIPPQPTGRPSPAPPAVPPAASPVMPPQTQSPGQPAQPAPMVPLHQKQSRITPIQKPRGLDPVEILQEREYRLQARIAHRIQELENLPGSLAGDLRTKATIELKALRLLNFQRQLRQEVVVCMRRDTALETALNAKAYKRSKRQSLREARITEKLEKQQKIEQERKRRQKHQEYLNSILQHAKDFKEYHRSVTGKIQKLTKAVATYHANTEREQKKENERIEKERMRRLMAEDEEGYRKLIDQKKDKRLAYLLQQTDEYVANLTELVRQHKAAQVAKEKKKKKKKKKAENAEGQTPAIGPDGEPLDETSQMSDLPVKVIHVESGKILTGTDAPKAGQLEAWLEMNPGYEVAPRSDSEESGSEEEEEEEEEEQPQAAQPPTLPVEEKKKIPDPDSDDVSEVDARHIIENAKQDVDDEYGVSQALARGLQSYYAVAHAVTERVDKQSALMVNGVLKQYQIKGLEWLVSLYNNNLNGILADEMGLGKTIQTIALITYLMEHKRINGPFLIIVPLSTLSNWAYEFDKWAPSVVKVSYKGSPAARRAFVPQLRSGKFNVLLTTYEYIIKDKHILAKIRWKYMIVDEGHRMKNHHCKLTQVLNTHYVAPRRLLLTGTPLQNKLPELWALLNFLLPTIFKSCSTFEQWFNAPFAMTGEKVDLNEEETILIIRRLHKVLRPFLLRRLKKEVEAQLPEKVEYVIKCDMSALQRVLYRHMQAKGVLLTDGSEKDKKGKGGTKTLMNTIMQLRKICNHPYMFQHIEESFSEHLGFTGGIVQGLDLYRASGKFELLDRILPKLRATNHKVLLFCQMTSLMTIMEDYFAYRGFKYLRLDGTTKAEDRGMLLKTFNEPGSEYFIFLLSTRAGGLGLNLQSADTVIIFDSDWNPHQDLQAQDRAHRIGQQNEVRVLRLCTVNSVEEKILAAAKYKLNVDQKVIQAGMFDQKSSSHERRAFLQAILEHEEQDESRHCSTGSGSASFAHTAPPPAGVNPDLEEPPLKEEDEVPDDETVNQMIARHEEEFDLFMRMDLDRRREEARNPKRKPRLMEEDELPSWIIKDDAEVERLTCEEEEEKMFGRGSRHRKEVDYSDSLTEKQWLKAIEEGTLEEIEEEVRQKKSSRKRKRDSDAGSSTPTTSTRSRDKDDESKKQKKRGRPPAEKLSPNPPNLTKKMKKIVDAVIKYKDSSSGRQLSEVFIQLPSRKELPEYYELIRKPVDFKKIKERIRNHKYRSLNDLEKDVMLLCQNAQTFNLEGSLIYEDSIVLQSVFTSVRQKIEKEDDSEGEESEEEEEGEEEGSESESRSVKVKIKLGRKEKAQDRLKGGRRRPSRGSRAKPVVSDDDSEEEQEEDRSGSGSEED
T2 sequence (O94915 2-3013 limits assumed): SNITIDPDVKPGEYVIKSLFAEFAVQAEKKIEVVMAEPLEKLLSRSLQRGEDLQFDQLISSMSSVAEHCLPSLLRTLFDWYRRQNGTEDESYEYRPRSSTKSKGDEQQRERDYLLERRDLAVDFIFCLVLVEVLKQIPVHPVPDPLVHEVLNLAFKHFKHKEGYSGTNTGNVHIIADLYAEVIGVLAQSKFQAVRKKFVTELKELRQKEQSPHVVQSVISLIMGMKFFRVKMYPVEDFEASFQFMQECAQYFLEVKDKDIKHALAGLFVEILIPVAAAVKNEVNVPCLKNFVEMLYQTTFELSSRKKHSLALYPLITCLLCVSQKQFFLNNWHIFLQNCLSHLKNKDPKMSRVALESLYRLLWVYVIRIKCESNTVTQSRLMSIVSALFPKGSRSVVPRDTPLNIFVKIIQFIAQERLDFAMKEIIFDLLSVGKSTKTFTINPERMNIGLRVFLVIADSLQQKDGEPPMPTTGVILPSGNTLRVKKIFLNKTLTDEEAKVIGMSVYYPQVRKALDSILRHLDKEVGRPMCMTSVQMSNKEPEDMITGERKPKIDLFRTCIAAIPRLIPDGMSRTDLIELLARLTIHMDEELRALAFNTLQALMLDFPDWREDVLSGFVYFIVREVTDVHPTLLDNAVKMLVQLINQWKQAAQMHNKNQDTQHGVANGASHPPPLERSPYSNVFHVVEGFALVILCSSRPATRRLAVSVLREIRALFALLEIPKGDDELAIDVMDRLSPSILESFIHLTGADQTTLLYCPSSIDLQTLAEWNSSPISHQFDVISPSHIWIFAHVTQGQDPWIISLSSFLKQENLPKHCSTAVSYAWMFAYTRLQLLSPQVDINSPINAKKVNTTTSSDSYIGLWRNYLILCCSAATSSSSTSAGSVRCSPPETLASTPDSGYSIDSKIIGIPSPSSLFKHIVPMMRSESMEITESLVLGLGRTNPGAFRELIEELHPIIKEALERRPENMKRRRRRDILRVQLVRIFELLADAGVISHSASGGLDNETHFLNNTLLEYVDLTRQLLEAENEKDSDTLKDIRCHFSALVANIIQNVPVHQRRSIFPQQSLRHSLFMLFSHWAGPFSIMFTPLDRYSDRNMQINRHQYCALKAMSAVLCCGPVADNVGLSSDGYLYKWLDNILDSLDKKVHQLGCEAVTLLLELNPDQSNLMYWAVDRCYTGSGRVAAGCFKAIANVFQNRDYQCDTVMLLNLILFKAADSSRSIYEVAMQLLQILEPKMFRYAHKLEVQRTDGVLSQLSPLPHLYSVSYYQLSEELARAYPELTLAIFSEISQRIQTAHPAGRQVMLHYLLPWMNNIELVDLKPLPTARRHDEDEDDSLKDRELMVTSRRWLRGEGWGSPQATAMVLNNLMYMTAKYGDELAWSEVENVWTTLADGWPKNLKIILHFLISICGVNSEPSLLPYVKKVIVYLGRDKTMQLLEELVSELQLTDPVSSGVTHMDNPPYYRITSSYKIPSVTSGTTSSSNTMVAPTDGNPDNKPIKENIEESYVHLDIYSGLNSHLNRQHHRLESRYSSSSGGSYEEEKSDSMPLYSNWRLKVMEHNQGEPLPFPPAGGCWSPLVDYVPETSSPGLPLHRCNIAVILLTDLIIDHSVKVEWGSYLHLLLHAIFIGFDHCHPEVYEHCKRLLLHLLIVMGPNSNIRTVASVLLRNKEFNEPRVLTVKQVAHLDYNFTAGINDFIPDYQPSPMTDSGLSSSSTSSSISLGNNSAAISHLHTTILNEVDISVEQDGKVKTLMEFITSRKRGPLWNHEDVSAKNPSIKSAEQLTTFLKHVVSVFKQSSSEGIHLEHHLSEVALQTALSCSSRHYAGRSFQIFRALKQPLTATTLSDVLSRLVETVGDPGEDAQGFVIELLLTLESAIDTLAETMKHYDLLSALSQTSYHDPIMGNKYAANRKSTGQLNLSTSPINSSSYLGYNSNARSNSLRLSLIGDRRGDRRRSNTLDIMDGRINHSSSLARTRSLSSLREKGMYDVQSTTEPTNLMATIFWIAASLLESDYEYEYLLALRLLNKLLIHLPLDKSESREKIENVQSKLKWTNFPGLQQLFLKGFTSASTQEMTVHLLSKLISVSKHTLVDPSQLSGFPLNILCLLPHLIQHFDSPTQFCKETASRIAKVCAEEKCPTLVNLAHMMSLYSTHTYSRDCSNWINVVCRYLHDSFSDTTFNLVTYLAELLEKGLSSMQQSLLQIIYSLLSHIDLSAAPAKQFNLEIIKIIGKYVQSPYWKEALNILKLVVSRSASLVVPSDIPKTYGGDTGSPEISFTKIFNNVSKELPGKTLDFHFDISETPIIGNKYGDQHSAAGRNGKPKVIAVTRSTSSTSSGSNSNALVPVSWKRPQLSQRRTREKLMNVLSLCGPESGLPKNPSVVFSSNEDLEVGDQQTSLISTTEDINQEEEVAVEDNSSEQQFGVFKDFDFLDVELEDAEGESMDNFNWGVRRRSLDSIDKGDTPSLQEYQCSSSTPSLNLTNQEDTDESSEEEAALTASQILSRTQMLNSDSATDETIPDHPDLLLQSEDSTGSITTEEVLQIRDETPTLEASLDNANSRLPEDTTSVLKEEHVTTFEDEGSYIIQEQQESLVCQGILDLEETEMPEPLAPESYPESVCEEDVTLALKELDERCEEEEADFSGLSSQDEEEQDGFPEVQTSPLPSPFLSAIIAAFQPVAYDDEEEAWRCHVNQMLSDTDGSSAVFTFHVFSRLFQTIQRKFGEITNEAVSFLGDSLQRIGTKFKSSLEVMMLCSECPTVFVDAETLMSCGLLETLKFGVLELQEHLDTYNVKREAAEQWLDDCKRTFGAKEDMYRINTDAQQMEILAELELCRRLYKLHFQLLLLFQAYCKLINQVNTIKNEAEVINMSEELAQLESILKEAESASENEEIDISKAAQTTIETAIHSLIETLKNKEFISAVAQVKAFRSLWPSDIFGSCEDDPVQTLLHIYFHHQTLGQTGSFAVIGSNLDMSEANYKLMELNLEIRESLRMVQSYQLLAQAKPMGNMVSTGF

B1: Flag and HA-tagged MAML1 (MAML1-F/H) (other, human, UniProt Q92585 1-1016, looked up)
chain: MVLPTCPMAEFALPRHSAVMERLRRRIELCRRHHSTCEARYEAVSPERLELERQHTFALHQRCIQAKAKRAGKHRQPPAATAPAPAAPAPRLDAADGPEHGRPATHLHDTVKRNLDSATSPQNGDQQNGYGDLFPGHKKTRREAPLGVAISSNGLPPASPLGQSDKPSGADALQSSGKHSLGLDSLNKKRLADSSLHLNGGSNPSESFPLSLNKELKQEPVEDLPCMITGTVGSISQSNLMPDLNLNEQEWKELIEELNRSVPDEDMKDLFNEDFEEKKDPESSGSATQTPLAQDINIKTEFSPAAFEQEQLGSPQVRAGSAGQTFLGPSSAPVSTDSPSLGGSQTLFHTSGQPRADNPSPNLMPASAQAQNAQRALAGVVLPSQGPGGASELSSAHQLQQIAAKQKREQMLQNPQQATPAPAPGQMSTWQQTGPSHSSLDVPYPMEKPASPSSYKQDFTNSKLLMMPSVNKSSPRPGGPYLQPSHVNLLSHQPPSNLNQNSANNQGSVLDYGNTKPLSHYKADCGQGSPGSGQSKPALMAYLPQQLSHISHEQNSLFLMKPKPGNMPFRSLVPPGQEQNPSSVPVQAQATSVGTQPPAVSVASSHNSSPYLSSQQQAAVMKQHQLLLDQQKQREQQQKHLQQQQFLQRQQHLLAEQEKQQFQRHLTRPPPQYQDPTQGSFPQQVGQFTGSSAAVPGMNTLGPSNSSCPRVFPQAGNLMPMGPGHASVSSLPTNSGQQDRGVAQFPGSQNMPQSSLYGMASGITQIVAQPPPQATNGHAHIPRQTNVGQNTSVSAAYGQNSLGSSGLSQQHNKGTLNPGLTKPPVPRVSPAMGGQNSSWQHQGMPNLSGQTPGNSNVSPFTAASSFHMQQQAHLKMSSPQFSQAVPNRPMAPMSSAAAVGSLLPPVSAQQRTSAPAPAPPPTAPQQGLPGLSPAGPELGAFSQSPASQMGGRAGLHCTQAYPVRTAGQELPFAYSGQPGGSGLSSVAGHTDLIDSLLKNRTSEEWMSDLDDLLGSQ
notes: Stably expressed in SupT1; also called FLAG-HA tagged MAML1; not shown: Flag and HA tags (pOZ vector)
binds: all assays above
